One substance from patent publication US20210221869A1 can be followed below.

This test deals with M22 antibody (thyrotropin receptor autoantibody). The test is described as follows: M22-blocking ELISA (KRONUS kit): fusion protein in 2-fold dilutions pre-incubated with peroxidase-M22, then added to the kit plate. On the technique in general: ELISA stands for enzyme-linked immunosorbent assay.

Broadly, the IC50 is the concentration at which inhibition is half-maximal. Read a low IC50 as inhibition by little substance. Substance TSHR 21-282 D43A (N01) (Fc fusion) came in with an IC50 of 3 mg/L.
